Assay results reported in the nanobody polyreactivity screen of Harvey et al. (2022).

test: yeast display, Sf9 membrane polyspecificity reagent, FACS + sequencing; frameworks hold sequencing errors
How it was run: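 Galactose induction of a Saccharomyces cerevisiae BJ5465 synthetic nanobody display library ran 36–48 hours. The cells were then stained for 1 hour at 4 °C with 10% biotinylated, detergent-solubilized Sf9 membrane reagent, pulled down on streptavidin microbeads and FACS-sorted into low and high (top ~1%) gates on expression and reagent-binding fluorescence. Labels for polyreactivity follow the gate of origin.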

Row | Sequence | polyreactivity (PSR sort gate)
1 | QVKLVDSGGGLVQAGGSLRISCAASGRIFGRYTMGWYRQAPGKERELVAGITYSGGSTYYADSVKGRFTISRDNAKNTVYLQMNSLKPEDTAVYYCAARLSGSGGFDYWGQGTQVTVSS | high polyreactivity
2 | QVKLVDSGGGLVQAGGSLRISCGASGRTFYGYDMGWYRQAPGKERELVAAINWRGVRTYYADSVKGRFTISRDNAKNTDYLEMNCLKPEDTAVYYCGVYNHWVYGNDYWGQGTQVTVSS | high polyreactivity
3 | QVKLVDSGGGLVQAGGSLRLSCAASGRIAVNAMGWYRQAPGKERELVAAISVSGGSTNYADSVKGRFTISRDNAKNTVYLQMNSLKPEDTAVYYCAARAFDPILRNDYSGQGTQVTVSS | low polyreactivity
4 | QVKLVDSGGGLVQAGGSLRLSCAASGRIIRINAMGWYRQAPGKERELVAAITRGGTTYADSVKGRFTISRDNAKNTVYLQMNSLKPEDTAVYYCNARTGRSPTGFRYWGQGTQVTVSS | high polyreactivity
5 | QVKLVESAGGLVQARGSLRLSCAGSGITFVRNAMGWYRQAPGKERELVAAISSGGSTYYADSVKGRFTISRDNAKNTVYLQMNSLKPEDTAVYYCNAQIYGRLYRYRWHFYWGQGTQVTVSS | high polyreactivity
6 | QVKLVESGAGLVHAGGSLRLSCAASGFIFFYYAMGRYRQAPGKERYLVATISANGGNTYYADSVKGRFTISRDNAKNTVYLQMNRLKPEDTAVYYCARYTWYLRDWQWYYWGDEDYWGQGTQVTVSS | high polyreactivity
7 | QVKLVESGGCLVQAGCSLSLSCAASGRTFVTYAMGWYRQAPGKEREFVAAISWSGVSTYYADSVKGRFTISRDNAKNTVYLQMNSLKPEDTAVYYCAAKRVRALYGGSEGGYWGQGTQVTVSS | low polyreactivity
8 | QVKLVESGGGIVQAGGSLRLSCAASGIIFARNAMGCYRQAPGKERELVAGINGGRKNYADSVKGSFTISRDNAKNTVYLQMNSLKPEDSAVYYCAARNKGTLYRYGYWGQGTQVTVSS | high polyreactivity
9 | QVKLVESGGGLVHAGGSLRLSCAASGFIFYYYAMGWYRQAPGKERELVAAITSSGGSTYYADSVKGRFTISRDNAKNTVYLQMNSLKPEDTAVYYCNARYVSASRNRGTSRYDYWGQGTQVTVSS | high polyreactivity
10 | QVKLVESGGGLVKAGGILRLSCAASGRTFRRNAMGWYRQPPGKESELVAAISSSGGSTYYADSVKGRFTISRDNAKNTVYLQMNSLKPEDTAVYYCNAYRYYVYDTYDGHGYWGQGTQVTVSS | high polyreactivity
11 | QVKLVESGGGLVQAGASLRLSVAASGNIFSVNTIGTYRQAPGKERELVAAITRRSGRTYYADSVKGRFTISRDNAKNTVFLQMNSLNPEDTAVYYCAASWRGASVIRFDYWGQGTQVTVSS | high polyreactivity
12 | QVKLVESGGGLVQAGGSHRLSCAASGSIFGDYVMGSYRQAPGKEMELVAAINRGGSTYYADSVKGRFTISRDNAKNTVYLQMNSLKPADTAVYYCAAGYPSWYYGYPYDSWGQGTQVTVSS | low polyreactivity
13 | QVKLVESGGGLVQAGGSLRLICAASGMTFVIYAMGWYRQAPGKERELVARNTWSGGSTYYADSEKGRFTISRDNSKNTVYLQMNSLNPEDSAVYYCAARRFYYYTAGYDYWGQGTQVTVSS | low polyreactivity
14 | QVKLVESGGGLVQAGGSLRLSCAASGFIFIDNTMGWYRQEPGKERELVAGINTSGASTHYADSVKGRFTISRDYAKNTVYLQMNSLKPEDTAVYYCNRGDLPKADYNDYSYDYDYRGQGTQVTVSS | low polyreactivity
15 | QVKLVESGGGLVQAGGSLRLSCAASGFIFKANAMGWYRQAPGKETELVAAITWRDGNTNYADSVKGRFTISRDNAKNTVYLQMNSLKPEDTAGYYCAVRLLADDGYPAVVGDDYWGQGTQVTVSS | low polyreactivity
16 | QVKLVESGGGLVQAGGSLRLSCAASGFIFLLYDMGWYRQAPGKERELVAANTSDGTTNYADSVKGRFTISRDNAKNTVYLQMNSLKPEDTAVYYCAADDEPYVYEVTAYLGYEYWGQGTQVTVSS | high polyreactivity
17 | QVKLVESGGGLVQAGGSLRLSCAASGFTFEEYAMGCYRQSPGKERELVAAISASGGRTYYADSVKRRFTISRDNAKNTVYLQMNSLKPEDTAVYYCAAGYRGRRIMDYWGQGTQVTVSS | high polyreactivity
18 | QVKLVESGGGLVQAGGSLRLSCAASGFTFEYYAMGWYRQAPGKERELVAAIRSDSGTNYADSVKGRFTISRDNAKNTVYLQMNSLKPEDTAVYYCAAPTVVLIDYDYWGQGTQVTVSS | low polyreactivity
19 | QVKLVESGGGLVQAGGSLRLSCAASGFTFSRNTMGWYRQAPGKERELVATISFRGGTTYYADSVKGRFTISRDNAKNTVYLQMNSLKPEDTAVYYCAVKVGFVRLLYHYYYWGQGTQVTVSS | high polyreactivity
20 | QVKLVESGGGLVQAGGSLRLSCAASGFTYSANTMGWSRQAPGKERELVAAITRGGRPYYADSVKGRFTISRDNAKNTVYFQMNSLKPEDTAVYYCAKRATWYTVPREGYWGQGTQVTVSS | high polyreactivity

Row | Sequence | polyreactivity (PSR sort gate)
21 | QVKLVESGGGLVQAGGSLRLSCAASGGTFQPNARGWNRQAPGKERELVAAISWSDGSTYYADSVKGRFTISRDNAKNTVYLQMNSLKPEDTAVYYCAADFTYYDSPYRDYNYESWGQGTQVTVSS | low polyreactivity
22 | QVKLVESGGGLVQAGGSLRLSCAASGIIFQYYAMGWYRQAPGKESELVAAISWSGGSTYYADSVKGRFTISRDNAKNTVYLQMNSLKPEDTAVYYCAARSRSYWPYEGYYWGQGTQVTVSS | low polyreactivity
23 | QVKLVESGGGLVQAGGSLRLSCAASGIIFYRYAMGWYRQAPGKERELVAAISGRTGRTYYADSVKGRFTISRDNAKNTVYLQMNSLKPEDTAVYYCAADYYHYRYQTRLDYWGQGTQVTVSS | high polyreactivity
24 | QVKLVESGGGLVQAGGSLRLSCAASGITIRFNAMGWYRQAPGKERELVPAITSSGGRTYYADSVKVRFTISRDNAKNTVYLQMNSLKPEDTAVYYCAAYYRYSTTEDRSVYRGYYYWGQGTQVTVSS | high polyreactivity
25 | QVKLVESGGGLVQAGGSLRLSCAASGLIFQNYAMVWYRQAPGKERELVAAISRRGGRTNYADSVKGRFTISRDNAKNNVYLQMKSLKPEDTAVYYCNAKARQSYYYRFDYWGQGTQVTVSS | high polyreactivity
26 | QVKLVESGGGLVQAGGSLRLSCAASGLTLQWYALGWYRQAHGKERDLVAAISYNGGDTYYADSVKGRFTISRDNAKNTVYLQMNSLKPEDTAVYYCAAYWYVGVNYSQRRDYWGQGTQVTVSS | low polyreactivity
27 | QVKLVESGGGLVQAGGSLRLSCAASGNTFGGYAMGWYRQAPGKERELVAAISSSGGSTYYADSVKGRFTISRDNAKNTVYLQMNSLKPEDTAVYYCAAYGGFYGYWTMGYWGQGTQVTVSS | high polyreactivity
28 | QVKLVESGGGLVQAGGSLRLSCAASGRIFGYNAMGWYRQAPGKERELVAAISRSGGTTYYADSVKGRFTISRDNSKNTVNLQMNRLKPEDTEVYYCAAYYRTRVPYDMDYWGQGTQVTVSS | high polyreactivity
29 | QVKLVESGGGLVQAGGSLRLSCAASGRIFQPYAMGWYRQAPGKERELVADITYRDGSTYFADSVKGRFTISRDNAKNTVYLQMNSLKPEDTAVYYCNADGEYAKDDWFHWYDYWGQGTQVTVSS | high polyreactivity
30 | QVKLVESGGGLVQAGGSLRLSCAASGRIFSGYAMGWYIQAPGKESEFVAAITWNGVSTYYADSVKVRFTISRDNAKNTVYLLMNSLKPEDTAVYYCAKDYVYYPSYRGSVNYWGQGTQVTVSS | low polyreactivity
31 | QVKLVESGGGLVQAGGSLRLSCAASGRTFGYNAMGWYRQAPGKERELVASINWSGGRTYYADSVKGRFTISRDNAKNTVYLQMYSLKPEDTAVYYCAKGFTRVQQQYQYLFGYWGQGTQVTVSS | low polyreactivity
32 | QVKLVESGGGLVQAGGSLRLSCAASGRTFINYAMGWYRQAPGKERELVAAITTGGRTNYADSVKGRFTISRDNSKNTVYLQMNSLKPEDTEVYYCAADRYDWGRNTLNYWGQGTQVTVSS | low polyreactivity
33 | QVKLVESGGGLVQAGGSLRLSCAASGRTFYINAMGWYRQAPGKERELVAAISRVGSTNYADSVKGRFTISRDNAKNTVYLQMNSLKPEDTEVYYCAARSRGGRRYYYWGQGSQVTVSS | high polyreactivity
34 | QVKLVESGGGLVQAGGSLRLSCAASGSTFYQNAMGWYRQAQGKEREFVAAISGSGDRTNYADSVKARFTISRDNAKNTVYLQMNSLKPEDTAVYFCAARGQPGRRTSSGFFSGGYCGQGTQVTVSS | high polyreactivity
35 | QVKLVESGGGLVQAGGSLRLSCAASVRIFALNTMGWYREAPGKERELDAAISYRGGSTYYADSVKGRFTISRDNAKTTVYLQMNSLKPEDTAVYYCAARCYSYSRRYGYDYWGQGTQVTVSS | high polyreactivity
36 | QVKLVESGGGLVQAGGSLRLSCADSGLIFYKYAMGWYRKAPGKERELVAAITSGGSTNYADSVKGRFTISRDNAKNTVYLQMNSLKPEDTAVYYCNADYNHYLVVRWWYPPVDYWGQGTQVTVSS | low polyreactivity
37 | QVKLVESGGGLVQAGGSLRLSFAASAGTFNSYAKGWYRQEPGKERELVATISYSGGSTYYADSVKGRFTISRDNAKYTVYLQMNSLKPEDTAVYYCAKVRYYPYSPGGLDYWGQGTQVTVSS | low polyreactivity
38 | QVKLVESGGGLVQAGGSLRLTCAASGSTFGPYAMGWYRQEPGKERELVSTITRNGGSTYYADSVKGRFTISRDNAKNTVYLQMNSLKPEDTAVYYCNAEGRWSSFTQRMDYWGQGTQVTVSS | low polyreactivity
39 | QVKLVESGGGLVQAGGSLSLSFAYSGITFYGNAMGWYRQAAGTERELVAAITGGGGTNYADSLKGRFTISRDNEKNTVYLQMNSLKPEDTAVYYCNRDYFVWFQRGQYKRGSSWYDYWGQGTQVTVSS | low polyreactivity
40 | QVKLVESGGGLVQAGRSLRLICAASGFTFHYNSMGWYRQAPGKEREFVAAISGSGDRTYYADSGKGRFTISRDNAKNTVYLQMNSLKPEDTAVYYCATSVRQNYFYSYDYWGQGTQVTVSS | high polyreactivity
